Here are results for 35 variants from the supplement of paper PMC7125110.

The labels stand for the following.
B1: glmS ribozyme (parent)
chain: AUAAAAGCGCCAGAACUACAGAAAUGUAGUUGACGAGGAGGAGGUUUAUCGAAUUUUCGGCGGAUGCCUCCAAA

± gives the standard error. Fewer inactive variants are shown than the library holds.

Variants of B1 are the subject of the first series. Briefly: self-cleavage kobs at 2500 uM GlcN6P; higher = faster cleavage; RNA array. The following applies: with glucosamine-6-phosphate. In short, it runs like this: (§1)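 Tiles of sequenced MiSeq chips were imaged over ~14 h at 37 °C. On them, barcoded ribozyme variants had been transcribed in situ by E. coli RNA polymerase and were tracked via a hybridised Cy3 probe while glucosamine-6-phosphate (40 μM to 10 mM) in HEPES/KCl/Mg(OAc)2 buffer flowed in. Per-tile medians, normalised to baseline and to non-cleaving reference variants, were fit to one- or two-exponential decays for kobs, and weighted Michaelis–Menten fits gave kcat and KM.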
As to AUAAAAGCGCCAGAUCUACAGAAAUGUAGUUGACGAGGGGGAGGUUUAUCAAAUUUUCGGCGGAUGCCUCCAAA, the “self-cleavage kobs at 2500 uM GlcN6P” value was under 1e-05 s⁻¹.
For the variant AUAAAAGUGCCAGAACUACAGAAAUGUAGUUUACGAGGAGGAGGCUUAUCGAAUUUUCGGCGGAUGCCUCCAAA, the “self-cleavage kobs at 2500 uM GlcN6P” value is under 1e-05 s⁻¹.
On the same count and under the same terms, then AUAAAAGCGCCGGAACUACAGAAAUGUAGUUGACGAGGAGGAGGUUUAACGAAUUUUCGGCGGAAGCCUCCAAA, with under 1e-05 s⁻¹.
The same measure, in the same setting: with AUAAAAGCGCCAGGCCUACAGAAAUGUAGUUGACGAGGAGGAGGUUUAUCGAAUUUUCGGCGGAUGCCUCAAAA the figure was 0.00262 ± 0.00058 s⁻¹; with AUAAAAGCGCCAGAACUACAGAAAUGUAGUUGACGAGGAGGAGGUUGAUCGCAUUUUCGCCGGAUGCCUCAAAA, under 1e-05 s⁻¹.
Same read-out and setting: with AUAAAAGCACCAGAACUACAGAAAUGUAGUUGACGAGGAGGUGGUUUAUCGAAUUUUCGGCGGAUGCCUCCAAA the figure was under 1e-05 s⁻¹; with AUAAAAGCGCCCGAUCUACAGAAAUGUAGUUGACGAGGAGAAGGUUUAUCGACUUUUUGGCGGAAGCCUCCAAA, under 1e-05 s⁻¹.
Turning to AUAAAAGCGCCAGAACUACAGAAAUGUAAUUGACGAGGAGGACGUUUAUCGAAUUUUCGGCGGAUGCGUCCAAA, the “self-cleavage kobs at 2500 uM GlcN6P” value was 0.00377 ± 0.0014 s⁻¹.
On to AUAAAAGCGCCAGAACUACAGAAAUGUAGUUGCCGAGGAGGAGGUUUAUCGAAUUCUCGGCGGAUGCCUCAAAA, for which the “self-cleavage kobs at 2500 uM GlcN6P” value is under 1e-05 s⁻¹.
Regarding AUAAAAGCGCCAGAACUACAGAAAUGUAGUGGACGAGCAGGAGGUCUAUCGAAUUUUCGGCGGAGGCCUCCAAA, the “self-cleavage kobs at 2500 uM GlcN6P” value is under 1e-05 s⁻¹.
Same read-out and setting: then AUAAAAGCGCCAGAGCUACAGAAAUGUAGUUGCCGAGGAGGAGGAUUAUCGAAUUUUCGGCGGAUGCCUCCAAA, with 0.000135 ± 4.1e-05 s⁻¹; and AUAAAAGCGCCUGAAUUACAGAAAUGUAGUUGACGAGGAGGAGGUUUAUCGAAUUUUCGGCGGAUGCCUACAAA, with 0.000361 ± 0.00013 s⁻¹.
Still for that read-out and setting: with AUAAAUGCGCUAGAACUACAGAAAUGUAGUUGACGAGGAGGAGGUUUAUCGAAUUUGGGGAGGAUGCUUUCAAA the figure was 0.000618 ± 0.00019 s⁻¹.
In the case of AUAAAAGCCCCAGAACUACAGAAAUGUAGUUGACGAGGAUUAGGGUUAUCGAAUUUUCGGCGGAUGCCUCCAAA, the “self-cleavage kobs at 2500 uM GlcN6P” value was under 1e-05 s⁻¹.
The same measure, in the same setting: with AUAAAAGCGCUAGACCUACAGAAAUGUAGUUGACGAGGAGGAGGUUUAUCGAAUUUUCGGCGUAAGACUCCAAA the figure was under 1e-05 s⁻¹.
On the same count and under the same terms, with AUAAAAGCGCCAGAACUACAGAAAUGUAGUUGAAGAGGAGGAGGUUCAUCGAUUUUUCGGCGGAUGCCUCCAAA the figure was under 1e-05 s⁻¹; with AUAAAAGCGCCGGAACUACAGAAAUGUAGAUGACGAGGAGGAGGUUUAUCGAAUUUUCGGCGGAUGCCCCCAAA, 5.49e-05 ± 1.7e-05 s⁻¹.
On the same count and under the same terms, with AUAAAAGGGCCAGAACUACAGAAAUGUAGUUGACGAGGAUCAGGUUUAUCGAAUUUUCGGCGGAUGCCUCCAAA the figure was under 1e-05 s⁻¹; with AUAAAAGCGCCAGAACUACAGAAAUGUAGUUAACGAGGAGGAGGUUUAUCUAAUUUUCGGCGGAUGCCUCCAAA, under 1e-05 s⁻¹.
Regarding AUAAAAGCGCCAGAACUACAGAAAUGUAGUUGACGAGGAGAAGGUUUACCGAAUUUACUGCGGAUGCGUCCAAA, the “self-cleavage kobs at 2500 uM GlcN6P” value is under 1e-05 s⁻¹.
Same read-out and setting: then AUAAAAGCGCCAGGACUACAGAAAUGUAGUUUACGAGGAGGAGGUUUAUCGAAUGUUCGGCGGAUGCCUCCAAA, with 0.000962 ± 0.00018 s⁻¹; and AUAAAAGGGCAAUAACUACAGAAAUGUAGUUGUCGCGGAGGAGGUUUAUCGAAUCUUGGGCGGAUGCCUCGAAA, with under 1e-05 s⁻¹.
Still for that read-out and setting: with AUAAAAGCGGCAGAACUACAGAAAUGUAGUUGACGAGGAAGAGGUUUAUCGAAUUUUCGUCGGAUGCCUCCAAA the figure was under 1e-05 s⁻¹.
With AUAAAAGCGCCAGGACUACAGAAAUGUAGUGGACGAGGAGGACGUUUAUCGAAUUUUCGGCGGAUGCCUCCAAA, the “self-cleavage kobs at 2500 uM GlcN6P” value is under 1e-05 s⁻¹.
On the same count and under the same terms, then AUAAAAGCGCCAGAACUACAGAAAUGUAGUUGACGAGGAGUAGGUUUAUUUAAUUUUCGGCGGAUGCCUCCAAA, with under 1e-05 s⁻¹; and AUAAACGCGCCUGAACUACAGAAAUGUAGUUGACGAGGAGGAGGUUUAACGAGAUUUCGGCGGAUGCCUCCAAA, with under 1e-05 s⁻¹.
As for AUAAAAGCGCCAGAACUACAGAAAUGUAGUUGAAGAGGAGGCGGUUUAUCGUAUUUUCGGCGGAUGCCUCAAAA, the “self-cleavage kobs at 2500 uM GlcN6P” value is under 1e-05 s⁻¹.
As for AUAAAAGCGCCAGAAAUACAGAAAUGUAGUUGACGAGGAGGAGGUUUAUCGAUUAUUCGGCGGAUGCCUCCAAA, the “self-cleavage kobs at 2500 uM GlcN6P” value worked out at 0.000149 ± 3.9e-05 s⁻¹.
On the same count and under the same terms, with AUAAAAGCGCCAGAACUACAGAAAUGUAGUUGACGAGGAGGAUGUUGAUCGAAUUUUCCGCGGAUGCCUCCAAA the figure was under 1e-05 s⁻¹; with AUAAAAGCGCCAGAACUACAGAAAUGUAGUUGACGAGGAGGAGUUGUAUCGAAUUUUCGGCGGAUGACUCCAAA, 0.00376 ± 0.00093 s⁻¹.
Same read-out and setting: then AUAAAAGCGCCAGAACUACAGAAAUGUAGUUGACGAGGAGAAGGUAUAUCGAAUUUUCGGCGGAUACCUCCAAA, with 9.01e-05 ± 3.1e-05 s⁻¹; and AUAAAAGCGCCAGAACUACAGAAAUGUAGUCGACGUGGAGGAGGUUUAUCGAAUUUUCGGCGGAUGCCUCCAAA, with under 1e-05 s⁻¹.
As for AUAAAAGCGCCAGAACUACAGAAAUGUAGUUGACGAUCAGGAGGUUUAUCGAAUCUUCGGCGGAUGCCUCCAAA, the “self-cleavage kobs at 2500 uM GlcN6P” value is under 1e-05 s⁻¹.
Consider AUAAAAGCGCCAGCACUACAGAAAUGUAGUUGACGAGGAGGAGGAUUAUCGAAUUUACGGCGGAUGCCUCCAAA, for which the “self-cleavage kobs at 2500 uM GlcN6P” value amounted to 3.29e-05 ± 1.2e-05 s⁻¹.
Still for that read-out and setting: with AUAAAAGCGCCAGAACUACAGAAAUGUAGUGAACGAGGAGGAGGUUUAUCGAAUUUUCGGCGGGUGCCUCCAAA the figure was 0.000581 ± 0.00022 s⁻¹.

Variants of B1 are the subject of the next series. Briefly: self-cleavage kobs at 10000 uM GlcN6P; higher = faster cleavage; RNA array. The following applies: with glucosamine-6-phosphate. In short, it runs like this: as §1
Take AUAAAAGCGCCAGAACUACAGAAAUGUAGUCGACGUGGAGGAGGUUUAUCGAAUUUUCGGCGGAUGCCUCCAAA: the “self-cleavage kobs at 10000 uM GlcN6P” value was under 1e-05 s⁻¹.
Turning to AUAAAAGCGCCAGAACUACAGAAAUGUAGUGAACGAGGAGGAGGUUUAUCGAAUUUUCGGCGGGUGCCUCCAAA, the “self-cleavage kobs at 10000 uM GlcN6P” value worked out at 0.00106 ± 0.00026 s⁻¹.
